From US20220220215A1 (CRESCENDO BIOLOGICS, published 2022)
Positions count from the first letter of the chain named. Numbers in names are those of the source.

Legend:
[1] = molecular target: T1, human CD137 expressed on CHO cells (human, UniProt Q07011 18-255); assay: FMAT/Mirrorball on CHO huCD137 cells
T1 construct: also called CHO huCD137; CHO human CD137 cells
How it was run: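 His-tagged VH molecules bound to CHO cells expressing human PD-1 or human CD137, with CHO parent cells as control, in PBS pH 7.4, 0.1% BSA, 0.05% sodium azide. Read by FMAT on Mirrorball (ex 488/640 nm); binding taken as FL2 median fluorescence intensity of FL5-gated events.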

[2] = molecular target: T2, Rhesus CD137-Fc tagged protein (rhesus, UniProt H9Z8K9 24-186); assay: BLI (Octet RED384), CD137-Fc on Protein G sensor, 1:1 model
T2 construct: extracellular domain; The Octet paragraph gives no catalogue number; also called rhCD137-Fc

[3] = molecular target: human CD40 (R&D Systems cat no. CDO-H5253) (human, UniProt P25942 21-193, limits assumed); assay: ELISA, plate-coated human CD40; legend: No binding (-)
Protocol: (§1) Specificity of binding for CD137 over the tumour necrosis factor receptor family members OX40, GITR (Glucocorticoid-induced TNFR-related), CD40 and HVEM was determined using an ELISA assay. Nunc Maxisorp plates were coated with 1 ug/ml human CD137-Fc recombinant protein (Acro Biosystems 41B-H5258), human GITR-Fc (R&D Systems cat no. 689-GR) human OX40-Fc (R&D Systems cat no. 3388-OX), human CD40 (R&D Systems cat no. CDO-H5253), human HVEM (R&D Systems cat no. HVM-H5258) in PBS overnight at 4° C. then washed twice with PBS. Non-specific protein interactions were blocked by incubation with 1% (w/v) skimmed milk powder (Marvel®) in PBS/0.1% Tween-20 for 1 hour at room temperature. Plates were washed twice with PBS then VH or antibody control (1 ug/ml) added for 1 hour at room temperature. Following three washes with PBS/0.1% Tween-20 a 1:1000 dilution of anti His-HRP (VH detection) or anti mouse-HRP (positive control mouse monoclonal antibody detection) was added in 1% Marvel/PBS/0.1% Tween-20. The detection antibodies were allowed to bind for 1 hour at room temperature then the plates were washed twice in PBS/0.1% Tween-20 and once in PBS. The ELISA was developed using TMB substrate and the reaction was stopped by the addition of 50 ul 0.5M H₂SO₄ solution. The absorbance at 450 nm was measured using the BMG Pherastar.

[4] = molecular target: T3, human HVEM (R&D Systems cat no. HVM-H5258) (human, UniProt Q92956 39-202, limits assumed); assay: ELISA, plate-coated human HVEM; legend: No binding (-)
T3 sequence (looked up): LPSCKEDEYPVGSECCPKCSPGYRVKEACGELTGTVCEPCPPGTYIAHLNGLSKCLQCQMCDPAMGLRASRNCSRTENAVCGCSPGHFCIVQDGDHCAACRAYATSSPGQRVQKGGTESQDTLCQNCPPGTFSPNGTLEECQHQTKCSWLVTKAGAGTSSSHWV
Protocol: as §1

[5] = molecular target: T4, human GITR-Fc (R&D Systems cat no. 689-GR) (human, UniProt Q9Y5U5 26-161); assay: ELISA, plate-coated human GITR-Fc; legend: No binding (-)
T4 construct: also called Glucocorticoid-induced TNFR-related
T4 sequence (looked up): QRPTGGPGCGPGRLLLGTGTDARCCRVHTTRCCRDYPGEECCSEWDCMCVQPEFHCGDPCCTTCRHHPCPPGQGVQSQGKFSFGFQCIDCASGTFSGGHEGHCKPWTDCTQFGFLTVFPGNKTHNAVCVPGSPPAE
Protocol: as §1

[6] = molecular target: T5, human OX40-Fc (R&D Systems cat no. 3388-OX) (human, UniProt P43489 29-216, limits assumed); assay: ELISA, plate-coated human OX40-Fc; legend: No binding (-)
T5 sequence (looked up): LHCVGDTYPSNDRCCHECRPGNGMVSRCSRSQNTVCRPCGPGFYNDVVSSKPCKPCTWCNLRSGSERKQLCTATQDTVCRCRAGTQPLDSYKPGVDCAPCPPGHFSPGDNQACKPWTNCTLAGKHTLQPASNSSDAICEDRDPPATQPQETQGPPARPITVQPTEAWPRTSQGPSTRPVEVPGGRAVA
Protocol: as §1

[7] = molecular target: T6, human CD40 (R&D Systems cat no. CDO-H5253) (human, UniProt P25942 21-193, limits assumed); assay: ELISA, plate coated with 1 ug/ml recombinant protein, anti His-HRP detection
T6 construct: Bought protein
Protocol: as §1

[8] = molecular target: T7, human HVEM (R&D Systems cat no. HVM-H5258) (human, UniProt Q92956 39-202, limits assumed); assay: as above
T7 construct: Bought protein
T7 sequence (looked up): T3 sequence (looked up)
Protocol: as §1

[9] = molecular target: T8, human GITR-Fc (R&D Systems cat no. 689-GR) (human, UniProt Q9Y5U5 26-161); assay: as above
T8 construct: Bought protein; also called Glucocorticoid-induced TNFR-related
T8 sequence (looked up): T4 sequence (looked up)
Protocol: as §1

[10] = molecular target: T9, human OX40-Fc (R&D Systems cat no. 3388-OX) (human, UniProt P43489 29-216); assay: as above
T9 construct: Bought protein
T9 sequence (looked up): T5 sequence (looked up)
Protocol: as §1

[11] = molecular target: T10, full-length rhesus CD137 (Sino Biologics 90847-K02H), huFc tag (rhesus, UniProt F6W5G6 24-186); assay: BLI (ForteBio Octet RED 384), CD137-Fc on Protein G biosensors, 1:1 model
T10 construct: Bought protein; also called rhCD137-Fc; Rhesus CD137-Fc tagged protein; not shown: human Fc tag (huFc) and any linker to it
Protocol: Binding kinetics of purified monovalent VH molecules were measured on a ForteBio Octet RED 384 instrument. Human and Rhesus CD137-Fc tagged protein was diluted to 5 μg/ml in kinetics buffer (0.05% Tween, 1×PBS) and coupled to Protein G biosensors (ForteBio cat no. 18-5082) via the Fc tag. VH were serially diluted (typically 1:2 dilution series starting with 200 nM, VH at the highest concentration) and binding to the CD137-Fc-coupled Protein G biosensors measured. Binding kinetics were determined from the (blank subtracted) sensor gram trace using 1:1 binding models and ForteBio Octet Data Analysis 9.0 software. Example kinetic and binding affinity data obtained is shown Table 18 (monovalent VH).

[12] = molecular target: T11, recombinant Fc-tagged ectodomain of cynomolgus CD137 (R&D S9324-4b) (cynomolgus macaque, UniProt A9YYE7 24-186); assay: SPR, Biacore 8K, single-cycle kinetics; Fc-tagged ectodomain captured on Protein G chip; 1:1 model
T11 construct: Bought protein; also called Cyno CD137; cynomolgus macaque CD137; not shown: Fc tag and any linker to it
How it was run: (§2)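 Single-cycle kinetics: Humabody VH constructs injected 90 s at low to high nanomolar concentrations over captured Fc-tagged ectodomains. Surface regenerated with 10 mM glycine pH 1.5. Kinetics fitted to a 1:1 binding model, including two-PD-1-arm constructs.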

[13] = molecular target: T12, recombinant Fc-tagged ectodomain of human CD137 (Acro Biosystems 41B-H5258) (human, UniProt Q07011 24-186); assay: as above
T12 construct: Bought protein; not shown: Fc tag
How it was run: as §2

[14] = molecular target: T13, recombinant Fc-tagged ectodomain of human PD1 (Acro Biosystems PD1-H5257) (human, UniProt Q15116 25-170); assay: as above
T13 construct: Bought protein; not shown: Fc tag
How it was run: as §2

[15] = molecular target: T14, recombinant Fc-tagged ectodomain of cynomolgus PD1 (Acro Biosystems PD1-C5254) (cynomolgus macaque, UniProt B0LAJ3 25-170); assay: as above
T14 construct: Bought protein; also called Cyno PD1; cynomolgus macaque PD1; not shown: Fc tag and any linker to it
How it was run: as §2

[16] = molecular target: T15, human CD137 expressed on cells (Jurkat human CD137 NF-kB luciferase reporter cells; human CD8+ T cells) (human, UniProt Q07011 24-255); assay: cell-based or functional assay
[17] = molecular target: T15, human CD137 expressed on cells (Jurkat …); assay: cell-based or functional assay; remark: listed apart in the source

B1: 003BB172-E01 (VHH)
VHH: EVQLVESGGGLVQPGGSLRLSCAASGFTFSNYGMHWVRQAPGKRLEWVAVISNDGNTKTYADSVKGRFTISRDNSKNMLYLQMTSLRTEDTAVYYCAQDETTTVTASYYFDYWGQGTLVTVSS
notes: also called 003BB1172-E01
[1]
  EC50: 1.73 nM
[2]
  Kd: 27.5 nM
  koff: 0.00131 s⁻¹
  kon: 47800 M⁻¹ s⁻¹
[3]
  binding result: no binding (tested: 1 ug/ml)
[4]
  binding result: no binding (tested: 1 ug/ml)
[5]
  binding result: no binding (tested: 1 ug/ml)
[6]
  binding result: no binding (tested: 1 ug/ml)

B2: 003BB172-E01 (VHH)
VH: B1 VHH
notes: Human VH single domain antibody (Humabody), monovalent, His-tagged in the assays; also called 003BB1172-E01; not shown: C-terminal 6xHIS tag
[7]
  binding result: no binding (tested: 1 ug/ml)
[8]
  binding result: no binding (tested: 1 ug/ml)
[9]
  binding result: no binding (tested: 1 ug/ml)
[10]
  binding result: no binding (tested: 1 ug/ml)

B3: 003BB172-E01-14 (VHH)
VHH: B1 VHH with L11V, G16R, R44G, M78T, T84N, T88A
notes: Human VH single domain antibody, monovalent
[1]
  EC50: 1.29 nM
[2]
  Kd: 25.9 nM
  koff: 0.00159 s⁻¹
  kon: 61300 M⁻¹ s⁻¹
[3]
  binding result: no binding (tested: 1 ug/ml)
[4]
  binding result: no binding (tested: 1 ug/ml)
[5]
  binding result: no binding (tested: 1 ug/ml)
[6]
  binding result: no binding (tested: 1 ug/ml)

B4: 003BB172-E01-14 (VHH)
VH: B1 VHH with L11V, G16R, R44G, M78T, T84N, T88A
notes: Human VH single domain antibody, His-tagged in the assays; not shown: C-terminal 6xHIS tag
[7]
  binding result: no binding (tested: 1 ug/ml)
[8]
  binding result: no binding (tested: 1 ug/ml)
[9]
  binding result: no binding (tested: 1 ug/ml)
[10]
  binding result: no binding (tested: 1 ug/ml)

B5: 003BB172-E01-8 (VHH)
VHH: B1 VHH with L11V, R44G, M78T, T84N
notes: as for B4
[11]
  Kd: 41.4 nM

B6: 003BB172-E01-5 (VHH)
VH: B1 VHH with M78T, T84N
notes: as for B4
[11]
  Kd: 11.5 nM

B7: TPP-1293 (PDBlocker1.92-6GS-CD137A-6GS-HSA2) (bispecific antibody)
chain: EVQLVESGGGLVKPGGSLRLSCAASGFTFSDESMTWMRQAPGKGLEWVSYISSGGGVKFYADSVKGRFTISRDNAKNSLYLQMNSLRAEDTAVYYCAREAPLRLGESPHDAFDISGQGTMVTVSSGGGGSGGGGSGGGGSGGGGSGGGGSGGGGSEVQLVESGGGLVQPGGSLRLSCAASGFTLSNYWMNWVRQAPGKGLEWVANINQDGSERYYVDSVKGRFTISRDNAKNSLYLQMNSLRAEDTAVYYCARGGEGYGVDHYGLDVSGQGTTVTVSSGGGGSGGGGSGGGGSGGGGSGGGGSGGGGSEVQLVESGGGLVKPGGSLRLSCAASGFTFSNYNMNWVRQAPGKGLEWVSSISSAGTHIYYADSVKGRFTISRDNAKNSLYLQMNSLRAEDTAVYYCARDPHSTGWYKDFDYWGQGTLVTVSS
notes: The chain is therefore built from the parts named in the composition
[12]
  Kd: 4.34 nM
  koff: 0.000226 s⁻¹
  kon: 52200 M⁻¹ s⁻¹
[13]
  Kd: 2.57 nM
  koff: 0.000151 s⁻¹
  kon: 58600 M⁻¹ s⁻¹
[14]
  Kd: 2.31 nM
  koff: 0.000212 s⁻¹
  kon: 91500 M⁻¹ s⁻¹
[15]
  Kd: 3.41 nM
  koff: 0.000407 s⁻¹
  kon: 119000 M⁻¹ s⁻¹
[16]
  CD8+ T-cell activation assay - IL-2 release, EC50: 0.146 nM
[17]
  Jurkat-CD137/CHO-PD-1 Reporter Assay EC50: 0.0113 nM

B8: TPP-1290 PD138G7(G109D)-6GS-CD137A-6GS-HSA2 (bispecific antibody)
chain: EVQLVESGGGVVRPGGSLRLSCAASGFTFDDYAMSWVRQAPGKGLEWVSGITWNGGSTGYADSVKDRFTISRDNAKNSLYLQMNSLRAEDTALYYCVRDKYSYAWSYDDFDIWGQGTMVTVSSGGGGSGGGGSGGGGSGGGGSGGGGSGGGGSEVQLVESGGGLVQPGGSLRLSCAASGFTLSNYWMNWVRQAPGKGLEWVANINQDGSERYYVDSVKGRFTISRDNAKNSLYLQMNSLRAEDTAVYYCARGGEGYGVDHYGLDVSGQGTTVTVSSGGGGSGGGGSGGGGSGGGGSGGGGSGGGGSEVQLVESGGGLVKPGGSLRLSCAASGFTFSNYNMNWVRQAPGKGLEWVSSISSAGTHIYYADSVKGRFTISRDNAKNSLYLQMNSLRAEDTAVYYCARDPHSTGWYKDFDYWGQGTLVTVSS
[12]
  Kd: 1.03 nM
  koff: 0.000255 s⁻¹
  kon: 247000 M⁻¹ s⁻¹
[13]
  Kd: 0.652 nM
  koff: 0.000185 s⁻¹
  kon: 283000 M⁻¹ s⁻¹
[14]
  Kd: 7.07 nM
  koff: 0.00244 s⁻¹
  kon: 345000 M⁻¹ s⁻¹
[15]
  Kd: 17.4 nM
  koff: 0.00539 s⁻¹
  kon: 310000 M⁻¹ s⁻¹
[16]
  CD8+ T-cell activation assay - IL-2 release, EC50: 0.199 nM
[17]
  Jurkat-CD137/CHO-PD-1 Reporter Assay EC50: 0.02 nM
